Laboratory results published in paper PMC9880813 (Genomics, Proteomics & Bioinformatics, 2021).

Legend:
YC157-ΔbFos = assay: split reporter (BiFC, NanoBiT)
YC157-bFos = YC157-bFos (UniProt P01100 118-210); assay: split reporter (BiFC, NanoBiT); conditions: partners not purified
YC157-bFos, sequence (P01100 118-210): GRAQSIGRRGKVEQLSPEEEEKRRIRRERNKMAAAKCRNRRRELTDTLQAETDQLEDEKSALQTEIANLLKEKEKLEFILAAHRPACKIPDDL

B1: YN157-bJun (domain or fragment, UniProt P05412 257-318, looked up)
chain: RKRMRNRIAASKCRKRKLERIARLEEKVKTLKAQNSELASTANMLREQVAQLKQKVMNHVNS
Question: B1 was tested. Which fluorescence-positive cell ratio (YC157-ΔbFos) did it give?
Answer: 0.5%

Question: And the “percentage of fluorescent cells, fold over the negative group (YN157-bJun + YC157-ΔbFos)” value (YC157-bFos)?
Answer: 7 fold

Question: What about the “signal-to-noise ratio of all cells (against YN157-bJun + YC157-ΔbFos)” value (YC157-bFos) of the same binder?
Answer: 33 ratio

Question: And the “signal-to-noise ratio of fluorescent cells (against YN157-bJun + YC157-ΔbFos)” value (YC157-bFos)?
Answer: 4 ratio
